{"source": "the DeepSol protein solubility set", "data": [{"assay": "soluble on expression in E. coli; label from the status in PepcDB or PDB records", "values": [{"sequence": "MAAGSEATTPVIVAAGAGGEEGEHVKPFKPEKAKEIIMSLQQPAIFCNMVFDWPARHWNAKYLSQVLHGKQIRFRMGMKSMSTVPQFETTCNYVEATLEEFLTWNCDQSSISGPFRDYDHSKFWAYADYKYFVSLFEDKTDLFQDVKWSDFGFPGRNGQESTLWIGSLGAHTPCHLDSYGCNLVFQVQGRKRWHLFPPEDTPFLYPTRIPYEESSVFSKINVVNPDLKRFPQFRKAQRHAVTLSPGQVLFVPRHWWHYVESIDPVTVSINSWIELEEDHLARVEEAITRMLVCALKTAENPQNTRAWLNPTEVEETSHAVNCCYLNAAVSAFFDRCRTSEVVEIQALRTDGEHMKKEELNVCNHMEVGQTGSQNLTTGTDKPEAASPFGPDLVPVAQRSEEPPSERGGIFGSDGKDFVDKDGEHFGKLHCAKRQQIMSNSENAIEEQIASNTTTTPQTFISTDDLLDCLVNPQVTRIVAQLLIQGRSL", "soluble on expression in E. coli": "not soluble"}, {"sequence": "MAAKLEKTTNSFEVITREWYAKFSPTWNESHGERIIRRFERDIFPWIGSKPISEIAAPELLATVRRIESRGAVETAHRALGNCGQVFRYAIATARATRDISADLRGALPPVKGEHLEHHHHHH", "soluble on expression in E. coli": "soluble"}, {"sequence": "MAAMPKPAAFWNDRFANEEYVYGEAPNRFVASAARTWLPEAGEVLLLGAGEGRNAVHLAREGHTVTAVDYAVEGLRKTERLATEAGVEVEAIQADVREWKPARAWDAVVVTFLHLPADERPGLYRLVQRCLRPGGRLVAEWFRPEQRTDGYTSGGPPDPAMMVTADELRGHFAEAGIDHLEAAEPTLDEGMHRGPAATVRLVWCRPSTSLEHHHHHH", "soluble on expression in E. coli": "soluble"}, {"sequence": "MAAPILFWHRRDLRLSDNIGLAAARAQSAQLIGLFCLDPQILQSADMAPARVAYLQGCLQELQQRYQQAGSRLLLLQGDPQHLIPQLAQQLQAEAVYWNQDIEPYGRDRDGQVAAALKTAGIRAVQLWDQLLHSPDQILSGSGNPYSVYGPFWKNWQAQPKPTPVATPTELVDLSPEQLTAIAPLLLSELPTLKQLGFDWDGGFPVEPGETAAIARLQEFCDRAIADYDPQRNFPAEAGTSGLSPALKFGAIGIRQAWQAASAAHALSRSDEARNSIRVWQQELAWREFYQHALYHFPSLADGPYRSLWQQFPWENREALFTAWTQAQTGYPIVDAAMRQLTETGWMHNRCRMIVASFLTKDLIIDWRRGEQFFMQHLVDGDLAANNGGWQWSASSGMDPKPLRIFNPASQAKKFDATATYIKRWLPELRHVHPKDLISGEITPIERRGYPAPIVNHNLRQKQFKALYNQLKAAIAEPEAEPDS", "soluble on expression in E. coli": "soluble"}, {"sequence": "MAAPKLGFFEKIANLTGALYRHQHAQFPRRFAILKAVGKHELAPPRQADWPAIKADWAKVQSFIQTGGYKNLSIREGLVYTAVTLEVVFWFFVGEMIGRRYIFGYLVPADYVSKSTKKTVKEQEALAALEN", "soluble on expression in E. coli": "not soluble"}, {"sequence": "MAASLRSFLEQLKRQNSLYLVKKPVNPRFELGALLKKTKGTVPMFFQNIEGYDVPAVGGIVGTRENFAQALRINKSELLAKITEAITNPGETRLLPSGPVQENVLTKGFDIGKMFPIPTFHEKDSGAFITAGIVVAKDPIYGRRFTSIRRMQLNGPNNLSILIESPGLIEQYYEFERRGQAMEVAIVLGVHPAITLSSQLPTQTFGLDKYNVASRLIGEPLPVVKCKTIDLEVPADAEIVLEGRMLPYVRHPEGPFGELMGYYGPQTMQPVVEVTAVTFRNNPIFQVIFPSSYEHKLPNALMREVVLFNHVRHVVPTVQDVHLTMAGGGRCHAIISIKKTAEGQGKQAIFAALASNKDVKHVVVVNDDVDIFDPEDVEWAIATRVQADQDIIIIPGAQGTPLEPSHNLRGVSAKMGIDATYPLAEEERFARTQIPGYDQIRLEDYLTLDW", "soluble on expression in E. coli": "soluble"}, {"sequence": "MAATSSTSSQSFDIELDIIGQQPPLLSIYTQISLVYPVSDPSQYPTIVSTLEEGLKRLSQTFPWVAGQVKTEGISEGNTGTSKIIPYEETPRLVVKDLRDDSSAPTIEGLRKAGFPLEMFDENVVAPRKTLAIGPGNGPNDPKPVLLLQLNFIKGGLILTVNGQHGAMDMTGQDAIIRLLSKACRNESFTEEEISAMNLDRKTVVPLLENYKVGPELDHQIAKPAPAGDAPPAPAKATWAFFSFTPKALSELKDAATKTLDASSKFVSTDDALSAFIWQSTSRVRLARLDASTPTEFCRAVDMRGPMGVSSTYPGLLQNMTYHDSTVAEIANEPLGATASRLRSELNSDRLRRRTQALATYMHGLPDKSSVSLTADANPSSSIMLSSWAKVGCWEYDFGFGLGKPESVRRPRFEPFESLMYFMPKKPDGEFTASISLRDEDMERLKADEEWTKYAKYIG", "soluble on expression in E. coli": "soluble"}, {"sequence": "MACHELSALRIAIGELLEKEAHDLLHEREELAPVLGQRPELKRLAEAKTLPALEEALREALLHLEERAAQEPEEPYWRGLLLAVEAMEGRLKALRAEAEALYQDLDALHGRLHRLFPRRR", "soluble on expression in E. coli": "soluble"}, {"sequence": "MADENHVRLSEVQLIQSEFGHSLEECYKLAVQYYKKEHVGKQEPVGYEDRIKLLSLSKQVQHGEISDEFDNAGWLDITGNDVNKAWRELGSLSRDEAMASFVFLVDRVCPPFKGFIADKKAIKDAELKEFAPQVTEQSAQPPSLQQVDQRLFEDQRKQIQEALNAQTFHQFSAYAQEQFPGQPEQQTTLIRQLQEQHYQQYMSQVYAQQSTTPNGAEMNPEESHQHQIRRDDDSDVSDDEAGEDLPSNPAISPASLWNRQDINEFKANIKKDGHEGIIKVGHGETVTVRVPTHENGSCLFWEFATDHYDIGFGVYFEWTVADSNQVSVHVSESDDEEDYDEALEAEQAEAGGGGGGAAGQGGPGDVEAGAMQTRRVDPNKPRQDEIIPVYRRDCHEEVYAGSHRYPGRGIYLLKFDNSYSLWRSKTLYYRVYYSK", "soluble on expression in E. coli": "soluble"}, {"sequence": "MADLSSRVNELHDLLNQYSYEYYVEDNPSVPDSEYDKLLHELIKIEEEHPEYKTVDSPTVRVGGEAQASFNKVNHDTPMLSLGNAFNEDDLRKFDQRIREQIGNVEYMCELKIDGLAVSLKYVDGYFVQGLTRGDGTTGEDITENLKTIHAIPLKMKEPLNVEVRGEAYMPRRSFLRLNEEKEKNDEQLFANPRNAAAGSLRQLDSKLTAKRKLSVFIYSVNDFTDFNARSQSEALDELDKLGFTTNKNRARVNNIDGVLEYIEKWTSQRESLPYDIDGIVIKVNDLDQQDEMGFTQKSPRWAIAYKFPAEEHHHHHH", "soluble on expression in E. coli": "soluble"}, {"sequence": "MADNLSDTLKKLKITAVDKTEDSLEGCLDCLLQALAQNNTETSEKIQASGILQLFATLLTPQSSCKAKVANIIAEVAKNEFMRIPCVDAGLISPLVQLLNSKDQEVLLQTGRALGNICYDSHEGRSAVDQAGGAQIVIDHLRSLCSITDPANEKLLTVFCGMLMNYSNENDSLQAQLINMGVIPTLVKLLGIHCQNAALTEMCLVAFGNLAELESSKEQFASTNIAEELVKLFKKQIEHDKREMIFEVLAPLAENDAIKLQLVEAGLVECLLEIVQQKVDSDKEDDITELKTGSDLMVLLLLGDESMQKLFEGGKGSVFQRVLSWIPSNNHQLQLAGALAIANFARNDANCIHMVDNGIVEKLMDLLDRHVEDGNVTVQHAALSALRNLAIPVINKAKMLSAGVTEAVLKFLKSEMPPVQFKLLGTLRMLIDAQEAAEQLGKNVKLVERLVEWCEAKDHAGVMGESNRLLSALIRHSKSKDVIKTIVQSGGIKHLVTMATSEHVIMQNEALVALALIAALELGTAEKDLESAKLVQILHRLLADERSAPEIKYNSMVLICALMGSECLHKEVQDLAFLDVVSKLRSHENKSVAQQASLTEQRLTVES", "soluble on expression in E. coli": "not soluble"}, {"sequence": "MADQYHEPVSELTGKDRDFVRALNSLKEEIEAVAWYHQRVVTTKDETVRKILEHNRDEEMEHAAMLLEWLRRNMPGWDEALRTYLFTDKPITEIEEETSGGSENTGGDLGIRKL", "soluble on expression in E. coli": "soluble"}, {"sequence": "MADSAQDLAFTAENFESLLNEQLGESGGLEGSVLTGTVIGVSGDFAVVDVGLKSEGRVPLKEFSRGGDDAEIKIGDTVDVFVERYEDKDGLIVLSRDKARREEAWNELEKAFNDNQRVRGLIHSRVKGGFTVDLSGAIAFLPGSQVDIRPVRDIGPLLGQPQVFQILKMDRARGNIVVSRRAVLEETRAEERSKLMETLREGEILEGVVKNITDYGAFVDLGGVDGLLHVTDISWKRINHPTEALSIGQTVKVQVIRFNAETQRISLGMKQLEADPWEGVAAKYPVGTKFVGRVTNITDYGAFVELEPGVEGLVHVSEMSWTKKNVHPGKIVSTSQEVEVMILDVDPDKRRISLGLKQTMANPWSEFLEGHPIGTEVEGEIKNITEFGLFIGLTGDIDGMIHLSDLDWNRSGDEAVKDYKKGDVVQAKVLDVDVEKERISLGVKQLGEDPYREATADLRKNQIVTCVITMVQENGIEVDVNGAIGFIRKSDLARERADQRPERFAVGEKVDAKVINMDKSNRRMTLSIKAREMDEEKQAMAEYGSADSGASLGDILGAALKQAQEKARTGDDELEHHHHHH", "soluble on expression in E. coli": "not soluble"}, {"sequence": "MADTIEVDGKQFAVDEEGYLSNLNDWVPGVADVMAKQDNLELTEEHWDIINFLREYYEEYQIAPAVRVLTKAVGKKLGKEKGNSKYLYSLFPYGPAKQACRFAGLPKPTGCV", "soluble on expression in E. coli": "soluble"}, {"sequence": "MAEICLITGTPGSGKTLKMVSMMANDEMFKPDENGIRRKVFTNIKGLKIPHTYIETDAKKLPKSTDEQLSAHDMYEWIKKPENIGSIVIVDEAQDVWPARSAGSKIPENVQWLNTHRHQGIDIFVLTQGPKLLDQNLRTLVRKHYHIASNKMGMRTLLEWKICADDPVKMASSAFSSIYTLDKKVYDLYESAEVHT", "soluble on expression in E. coli": "soluble"}, {"sequence": "MAEIFRIPEEKFRDKVHKSLEENVTWVERETGRLPSYEEVEEFLVEEFSKVIPFEGEEPVPEEAIELADKLKEEFTSEEVLLEDTGRKHRAIKLREGVYLRTAVHKAQGGLIRTEVYTDGEVIERVKIYGDFTLYPKESLKELEEKLKGIKFEPEEIKKVAHEFLQKVDMPGVSAEDLVIAIYG", "soluble on expression in E. coli": "soluble"}, {"sequence": "MAELRSFIFIDRLQPQTMSYLGTWIKGALPRANMAAQIIEVAPGLDIEGVTDVALKHAEVKAGILVVERQFGYLEFHGETGAVKAAADAALDYLGGDPDAAVRPEILASRIISSIDHQHAFLINRNKIGSMVLPGESLFVLEVAPASYAILATNEAEKAADVKVVDFRMIGATGRVYLSGTEADVRQAADAARDALAVLQGA", "soluble on expression in E. coli": "soluble"}, {"sequence": "MAEQQQEQQIRVRIPRKEENEILGIIEQMLGASRVRVRCLDGKTRLGRIPGRLKNRIWVREGDVVIVKPWEVQGDQKCDIIWRYTKTQVEWLKRKGYLDELL", "soluble on expression in E. coli": "soluble"}, {"sequence": "MAEREVRSTAYQLNAARFPLYRDLAGFDFASSEINEALVRQLHRCEFMDQANNVVLVGGPGTGKTHITTALGVRAVEHQCKRVRFFSTVEFVNVLEQEGPRAGQIANRLAHSDLVILNELGYLPFSASGGALLFHLLSTLYGRAPASSSPLKLISASASGLP", "soluble on expression in E. coli": "not soluble"}, {"sequence": "MAERLLQSMSRVAGRCHPDCVKASDEQEDYHASQNAALVAVNLISSARLILKLDAEFTEYSAQFLMDNAGKEDDPGEVDQQRNQVTTENCLRYLAENVWTKKENGQGGMDQQRPVLTVKDCLELAFKKGLPRREHWAHLGCTFKAPPFACQIPRVPVKGEVVEVKTFDEAFKLLVHQPIGAKLHLFSPQIDNVGEGVYKGLTTGNETHYVGLRDVLIASVEEFEGDSVAIVKICYKKKLSFIKVSLSVRFLSVAHDGDKSKFIAPTGLLVDFCVPRLSIN", "soluble on expression in E. coli": "soluble"}, {"sequence": "MAEVHVRELKGWEEMEEVVALQREVWGRAESDLVPRGLLVAVQDEGGLVAGAFAEGRMVGFVFGFPTKDPALHHSHMLGVLEAYRGTGAALLLKRFQRDWCLARGVRRVVWTFDPMRGVNANFNLRKLGATAKTYLPDHYGPMSGINAGAPSDRLLAEWDLLSERVYARLYAPPPEPEVAGLPQANRVEGEVPLEARLDLEAERLLFQIPEDWGRILREDPALALKWREHSRLVLPHYFARGYRLVDLVRHPNRYVLAKD", "soluble on expression in E. coli": "soluble"}]}]}
